Measured values as given in patent publication US20030124602.

Tested on: Flag epitope tagged CTMPs (F.CTMPs; CTMP starting at the natural ATG of the cDNA)
Sequence (chain, as listed by the source): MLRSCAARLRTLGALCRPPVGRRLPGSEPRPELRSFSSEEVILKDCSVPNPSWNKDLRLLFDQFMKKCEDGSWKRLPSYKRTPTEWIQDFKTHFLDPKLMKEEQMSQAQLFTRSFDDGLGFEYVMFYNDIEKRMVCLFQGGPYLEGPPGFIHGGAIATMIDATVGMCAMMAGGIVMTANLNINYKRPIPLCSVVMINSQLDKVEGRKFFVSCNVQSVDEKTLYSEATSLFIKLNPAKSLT

Substance: HA epitope-tagged PKB alpha (HA-PKBα, pCMV5-HA-PKBα)
- phosphorylation of PKB on Thr 308 and Ser 473, Western blot with phospho-specific antibodies: CTMP expression leads to a reduction of phosphorylation on both residues but most notably on the S473 site
